The record followed here is publication PMC12713436 (2025).

The target in this assay is secretory immunoglobulin A1 (sIgA1) from human colostrum (human (endogenous in colostrum), UniProt P01591 23-159; P01833 19-603, dense O-glycosylation, predominantly in the hinge region). Description: apparent Kd from DLS Hill fit, h = 2.04.
Chain of secretory immunoglobulin A1 (sIgA1) from human colostrum (chain, as listed by the source, chain 1 of 3): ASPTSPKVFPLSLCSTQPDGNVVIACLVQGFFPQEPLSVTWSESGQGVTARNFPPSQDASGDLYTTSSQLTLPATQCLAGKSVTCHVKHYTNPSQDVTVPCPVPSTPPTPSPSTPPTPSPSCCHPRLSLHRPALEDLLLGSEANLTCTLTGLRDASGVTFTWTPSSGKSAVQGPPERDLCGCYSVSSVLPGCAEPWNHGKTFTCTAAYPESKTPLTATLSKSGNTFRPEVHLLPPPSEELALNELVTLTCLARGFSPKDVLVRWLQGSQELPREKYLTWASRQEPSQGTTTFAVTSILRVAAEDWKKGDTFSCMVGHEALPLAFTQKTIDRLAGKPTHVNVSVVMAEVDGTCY
Chain of secretory immunoglobulin A1 (sIgA1) from human colostrum (P01591 23-159, chain 2 of 3): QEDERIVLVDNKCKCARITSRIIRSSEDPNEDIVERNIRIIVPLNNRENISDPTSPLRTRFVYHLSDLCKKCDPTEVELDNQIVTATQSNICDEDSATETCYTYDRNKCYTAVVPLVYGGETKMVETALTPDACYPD
Chain of secretory immunoglobulin A1 (sIgA1) from human colostrum (P01833 19-603, chain 3 of 3): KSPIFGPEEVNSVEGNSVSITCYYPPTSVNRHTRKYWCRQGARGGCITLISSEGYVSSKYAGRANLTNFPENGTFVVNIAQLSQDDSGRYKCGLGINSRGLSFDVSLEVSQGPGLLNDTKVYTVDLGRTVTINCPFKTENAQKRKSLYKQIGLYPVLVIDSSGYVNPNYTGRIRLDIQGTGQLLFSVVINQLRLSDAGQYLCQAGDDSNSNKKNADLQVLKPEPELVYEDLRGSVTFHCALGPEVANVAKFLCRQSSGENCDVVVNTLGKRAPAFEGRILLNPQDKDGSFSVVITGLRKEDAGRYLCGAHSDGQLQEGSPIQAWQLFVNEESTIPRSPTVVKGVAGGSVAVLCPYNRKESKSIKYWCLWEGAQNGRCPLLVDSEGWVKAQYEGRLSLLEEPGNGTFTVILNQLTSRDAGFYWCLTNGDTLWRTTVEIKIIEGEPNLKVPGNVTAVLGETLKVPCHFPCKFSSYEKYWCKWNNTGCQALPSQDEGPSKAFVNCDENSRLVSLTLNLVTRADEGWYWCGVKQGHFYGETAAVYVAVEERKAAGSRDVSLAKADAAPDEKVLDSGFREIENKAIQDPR

B1: frutalin (FTL), galactose-specific jacalin-related lectin from Artocarpus altilis (syn. Artocarpus incisa) seeds (natural protein)
chain 1: GKAFDDGAFTGIREINLSYNKETAIGDFQVIYDLNGSPFVGQNHTSFITGFTPVKISLDFPSEYIIEVSGHTGKVSGYVVVRSLAFKTNKKTYGPYGVTSGTPFNLPIENGLIVGFKGSIGYWLDYFSMYLSL
chain 2: AEQSGKSQTVIVGPWGAQVS
modifications: α-chain glycoisoforms (differential glycosylation and limited proteolysis)
On to B1, for which the Kd worked out at 930 nM.
